The values below come from the supplement of paper PMC9170038.

Data set [1] relates to MS2 coat protein. Description: apparent KD of MS2 coat protein, switch OFF state (with FMN for OFF switches, without FMN for ON switches); designed switch direction (-1 OFF switch, 1 ON switch): -1; higher = weaker reporter binding. The conditions noted are these: FMN input: 0 or 200 uM; Eterna round: R93 (includes R88 designs). The procedure, abridged: (§1)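 Each design's apparent KD comes from the median of binding-curve fits to its normalised clusters. Those clusters carried RNA switches transcribed on-chip from Illumina sequencing clusters. SNAP-549-labelled MS2 coat protein was titrated onto them in twofold steps (0.7 or 1.5 nM to 3 µM; per step 0.8–1.5 h down to 10–20 min). Conditions were 100 mM Tris-HCl pH 7.5, 80 mM KCl, 4 mM MgCl2, without or with constant ligand.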

Data set [2] deals with MS2 coat protein. Description: apparent KD of MS2 coat protein, switch ON state; designed switch direction (-1 OFF switch, 1 ON switch): -1; higher = weaker reporter binding. The conditions noted are these: FMN input: 0 or 200 uM; Eterna round: R93 (includes R88 designs). In outline:
as §1

“AUAAGUGCAGGAUAUACGAAAAGCUAGCGAAAGCUAGCGGGACAUGAGGAUCACCCAUGUAGAAGGGCACAAUA [Tetraloop hairpin BlockHead... 61% 6]”: the “apparent KD of MS2 coat protein” value came to 50.3 nM in data set [1] and 25 nM in data set [2].

On to “AUAAUGUGAGGAUAUACAUGAGGAUCACCCAUGUAAUUAAAAAGGAGAGACACAAUUCGUAGAAGGUACAUUUA [JR_Exc003_Sub509]”, for which the “apparent KD of MS2 coat protein” value in data set [1] was determined as 26.3 nM; in data set [2], 23.4 nM.

On to “AUAAUGUGAGGAUAUACAUGAGGAUCACCCAUGUAAUUAAAUAGGAGAGACACAAUUCGUAGAAGGUACAUUUA [JR_Exc003_Sub508]”, for which the “apparent KD of MS2 coat protein” value in data set [1] was found to be 27.7 nM; in data set [2], 29.4 nM.

On to “AUAGGCCUAGGAUAUACAUGAGGAUCACCCAUGUAAAUAAAUCGAUCAUGAUAAACGUGUAGAAGGAGGAAUAA [JR_Exc003_Sub206]”, for which the “apparent KD of MS2 coat protein” value in data set [1] worked out at 39.5 nM; in data set [2] it was 28.8 nM.

Take “AUAGGCCUAGGAUAUACAUGAGGAUCACCCAUGUUAACACUGCAAUCAAGUUAAUAUUGUAGAAGGAGGAAUAA [JR_Exc003_Sub310]”: the “apparent KD of MS2 coat protein” value in data set [1] stood at 26.1 nM; in data set [2], 26.3 nM.

As for “AUAGGCCUAGGAUAUACAUGAGGAUCACCCAUGUUAAUACUUCAAUCAAGAUAAAAGUGUAGAAGGAGGAAUAA [JR_Exc003_Sub306]”, the “apparent KD of MS2 coat protein” value in data set [1] worked out at 30.9 nM; in data set [2] it was 26.7 nM.

As for “AUAGUACAUGAGGAUCACCCAUGUCAGGAUAUCGGAUAUGACAUGAAAAAAAUGUUAACGAGAAGGGACUAUAA [EX1 Malc#18]”, the entries for the “apparent KD of MS2 coat protein” value in data set [1] and in data set [2] were 49.8 nM and 44.3 nM, respectively.

With “AUAGUACAUGAGGAUCACCCAUGUCAGGAUAUCGGAUGUGACAUGAAAAAAAUGUUAGUGAGAAGGGACUAUAA [EX1 Malc#18 Mod 3 - Jieux - Exclusion 1]”, the entries for the “apparent KD of MS2 coat protein” value in data set [1] and in data set [2] were 111 nM and 66.9 nM, respectively.

With “AUCAUGUUAGGAUAUACAAGAAAAGAAAAGAAAGAAAAGAAGUAGAAGGAACAUGAGGAUCACCCAUGUAAGAA [EteRNA is fun!]”, the “apparent KD of MS2 coat protein” value in data set [1] amounted to 32.3 nM; in data set [2] it was 23.6 nM.

Turning to “AUCAUGUUAGGAUAUUUAAGAAAAGAAAAGAAAGAAAAGAAAAAGAAGGAACAUGAGGAUCACCCAUGUAAGAA [EteRNA is fun!]”, the results for the “apparent KD of MS2 coat protein” value in data set [1] and in data set [2] were 22 nM and 27.5 nM, respectively.

Consider “AUCUACCUAGGAUAUACAUGAGGAUCACCCAUGUACAGAUACAACAAGGGAAACACACGUAGAAGGAGGAAGAU [JR_Exc003_Sub1206]”, for which the entries for the “apparent KD of MS2 coat protein” value in data set [1] and in data set [2] were 60.8 nM and 25.8 nM, respectively.

With “AUCUAGUCAGGAUAUGACUACAUAAAAAAAAAAAAAUGUAGUCAGAAGGGACAUGAGGAUCACCCAUGUACUAA [HSL_Exclusion 4 64% 1]”, the “apparent KD of MS2 coat protein” value in data set [1] stood at 24.8 nM; in data set [2], 37.3 nM.

As to “AUCUAGUGAGGAUAUCGUACAAUAUGGAAAACAUAGAGGUACGAGAAGGCACAUGAGGAUCACCCAUGUAAAAC [May 100]”, the “apparent KD of MS2 coat protein” value in data set [1] worked out at 36.5 nM; in data set [2], 26.8 nM.

“AUCUUGUCAGGAUAUCGUACAAUAUGGAAAACAUAGAGGUACGAGAAGGGACAUGAGGAUCACCCAUGUAAAAC [May 98]”: the “apparent KD of MS2 coat protein” value was determined as 73.7 nM in data set [1] and 59.5 nM in data set [2].

Regarding “AUGAGAGCAGGAUAUGCAGGUGUGCCGGAAGAAAGAAGAAGACAUGAGGAUCACCCAUGUAGAAGGGCUAGCCC [Bibidi]”, the “apparent KD of MS2 coat protein” value is 18.5 nM in data set [1] and 30 nM in data set [2].

As for “AUGUAGGUAGGAUAUACAUGGAUAUACAUUCAUGUGGACCUACAUGAGGAUCACCCAUGUAGAAGGACCUAAAA [Mat - Same state - Mayanna Mod - D128]”, the “apparent KD of MS2 coat protein” value in data set [1] was found to be 39.4 nM; in data set [2] it was 45 nM.

For “CAAAGGUGAGGAUAUACAAAAAAAUGACGAAAGUCAUCCACACAUGAGGAUCACCCAUGUAGAAGGCACCACAA [E2 64% 6]”, the “apparent KD of MS2 coat protein” value in data set [1] amounted to 29.2 nM; in data set [2], 30 nM.

Take “CAAAGGUGAGGAUAUACAUAACUAUGACGAAAGUCAUAAAAACAUGAGGAUCACCCAUGUAGAAGGCACCACAA [E2 64% 1]”: the “apparent KD of MS2 coat protein” value in data set [1] is 31.3 nM; in data set [2] it was 38.1 nM.

In the case of “CAAAGGUGAGGAUAUGCAUAACUAUGACGAAAGUCAUAAACACAUGAGGAUCACCCAUGUAGAAGGCACCACAA [e2-2]”, the “apparent KD of MS2 coat protein” value in data set [1] is 18.8 nM; in data set [2], 37.2 nM.

For the sequence “CAAAGUGGAGGAUAUACAUGAGGAUCACCCAUGUAAGGACAAUAAAUAAGAAGAAGAAGUAGAAGGCCACUCAA [e3-2]”, the “apparent KD of MS2 coat protein” value in data set [1] stood at 40.2 nM; in data set [2], 28.9 nM.

Consider “CACAAGUCAGGAUAUUCGACAAGUAAAUCAGUAGAUCAAAAGAAGAAGGGACAUGAGGAUCACCCAUGUAAAUA [JR_Exc004_Sub402]”, for which the results for the “apparent KD of MS2 coat protein” value in data set [1] and in data set [2] were 22.3 nM and 39.1 nM, respectively.

For the sequence “CACGGACAUGAGGAUCACCCAUGUGAGGAUAUGCUCUACGAACGUUUUCCCACGAGAAGCAGAAGGCACAUUUC [try 2]”, the “apparent KD of MS2 coat protein” value in data set [1] amounted to 90.8 nM; in data set [2], 42.6 nM.

On to “CACGUACAUGAGGAUCACCCAUGUUAGGAUAUGCCGGGUAAGAGAAAACAAAAAAUCAGCAGAAGGGACGAAAC [Bilbo Confounded 17 - Jieux - Exclusion 1]”, for which the “apparent KD of MS2 coat protein” value in data set [1] worked out at 31.8 nM; in data set [2], 34.1 nM.

As to “CAGUACUGAGGAUAUACAUGAGGAUCACCCAUGUAUCCAAGCUAGGAAACUAGCAAAUGUAGAAGGCAGUACUG [Ex3: 821]”, the figures for the “apparent KD of MS2 coat protein” value in data set [1] and in data set [2] were 319 nM and 37.5 nM, respectively.

In the case of “CAGUACUGAGGAUAUACAUGAGGAUCACCCAUGUAUCCUAGCUAGGAAACUAGCAAAAGUAGAAGGCAGUACUG [Ex3: 819]”, the results for the “apparent KD of MS2 coat protein” value in data set [1] and in data set [2] were 118 nM and 13.5 nM, respectively.

Regarding “CAGUACUGAGGAUAUACAUGAGGAUCACCCAUGUGGUCAAGCUACGAAAGUAGCAAAAGUAGAAGGCAGUACUG [Ex3: 811]”, the “apparent KD of MS2 coat protein” value in data set [1] is 34.6 nM; in data set [2], 209 nM.

Regarding “CAGUACUGAGGAUAUACAUGAGGAUCACCCAUGUGUUCCAGCUAGGAAACUAGCAAAUGUAGAAGGCAGUACUG [Ex3: 827]”, the results for the “apparent KD of MS2 coat protein” value in data set [1] and in data set [2] were 85.8 nM and 183 nM, respectively.

Consider “CGCUAGUCAGGAUAUACAAACAUGUCAAAAGACGUGAAAAAACAUGAGGAUCACCCAUGUAGAAGGGACUAGCG [Mat - Exclusion 2 - JL mod - D18]”, for which the “apparent KD of MS2 coat protein” value in data set [1] worked out at 17.7 nM; in data set [2] it was 15.7 nM.

Regarding “CGCUAGUCAGGAUAUACGAACAUGUCAAAAGACGUGAAGGGACAUGAGGAUCACCCAUGUAGAAGGGACUAGCG [Mat - Exclusion 2 - JL mod - D4]”, the “apparent KD of MS2 coat protein” value in data set [1] was found to be 131 nM; in data set [2] it was 30.2 nM.

Regarding “CUCAAGUCAGGAUAUAAAAGAAAAGAAGAGAAAGAAAAGAAUUAGAAGGGACAUGAGGAUCACCCAUGUAAGAA [EteRNA is fun!]”, the results for the “apparent KD of MS2 coat protein” value in data set [1] and in data set [2] were 60.6 nM and 66.9 nM, respectively.

Turning to “CUCAAGUUAGGAUAUUGAAGAAAAGAAGAGAAAGAAAAGAACAAGAAGGAACAUGAGGAUCACCCAUGUAAGAA [EteRNA is fun!]”, the “apparent KD of MS2 coat protein” value was 21.8 nM in data set [1] and 22.9 nM in data set [2].
